Experimental data from US20050106145A1 (SIGMA TAU INDUSTRIE FARMACEUTICHE RIUNITE S P A, published 2005).

Tests used:
human tenascin-C [1] = target: T1, human tenascin-C (human, UniProt P24821 23-2201, limits assumed); assay: BIAcore, comparison with BC4
T1 construct: Extracellular matrix protein; also called SK-MEL-28 purified tenascin

A1-4D fragment = target: T2, A1-4D fragment (human, UniProt P24821); assay: Western blot
T2 construct: recombinant antigenic fragment; Lane B of the Western blots; also called A-D fragment
T2 sequence (antigen fragment, looked up): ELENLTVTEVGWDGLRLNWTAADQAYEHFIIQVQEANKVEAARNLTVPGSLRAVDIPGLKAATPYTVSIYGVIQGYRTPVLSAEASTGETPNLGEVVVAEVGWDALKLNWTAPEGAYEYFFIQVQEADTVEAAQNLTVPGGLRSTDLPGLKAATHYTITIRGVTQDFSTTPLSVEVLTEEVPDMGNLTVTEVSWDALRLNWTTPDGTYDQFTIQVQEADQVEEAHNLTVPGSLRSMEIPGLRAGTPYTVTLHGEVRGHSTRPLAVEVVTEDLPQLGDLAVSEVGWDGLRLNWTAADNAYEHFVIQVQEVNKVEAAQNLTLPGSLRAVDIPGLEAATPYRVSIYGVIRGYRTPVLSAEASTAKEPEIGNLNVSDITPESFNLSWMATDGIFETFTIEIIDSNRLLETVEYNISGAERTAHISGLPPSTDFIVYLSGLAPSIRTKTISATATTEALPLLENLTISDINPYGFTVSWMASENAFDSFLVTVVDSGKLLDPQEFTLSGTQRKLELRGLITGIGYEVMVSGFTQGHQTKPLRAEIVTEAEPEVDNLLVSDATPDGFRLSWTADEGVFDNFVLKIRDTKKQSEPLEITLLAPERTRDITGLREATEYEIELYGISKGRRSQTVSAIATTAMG

human tenascin-C [2] = target: T1, human tenascin-C; assay: BIAcore
human tenascin-C [3] = target: T1, human tenascin-C; assay: ELISA, optimal antigen concentration (FIG. 6 panel A)
human tenascin-C [4] = target: T1, human tenascin-C; assay: BIAcore; remark: listed apart in the source

T1 sequence (P24821 23-2201 limits assumed): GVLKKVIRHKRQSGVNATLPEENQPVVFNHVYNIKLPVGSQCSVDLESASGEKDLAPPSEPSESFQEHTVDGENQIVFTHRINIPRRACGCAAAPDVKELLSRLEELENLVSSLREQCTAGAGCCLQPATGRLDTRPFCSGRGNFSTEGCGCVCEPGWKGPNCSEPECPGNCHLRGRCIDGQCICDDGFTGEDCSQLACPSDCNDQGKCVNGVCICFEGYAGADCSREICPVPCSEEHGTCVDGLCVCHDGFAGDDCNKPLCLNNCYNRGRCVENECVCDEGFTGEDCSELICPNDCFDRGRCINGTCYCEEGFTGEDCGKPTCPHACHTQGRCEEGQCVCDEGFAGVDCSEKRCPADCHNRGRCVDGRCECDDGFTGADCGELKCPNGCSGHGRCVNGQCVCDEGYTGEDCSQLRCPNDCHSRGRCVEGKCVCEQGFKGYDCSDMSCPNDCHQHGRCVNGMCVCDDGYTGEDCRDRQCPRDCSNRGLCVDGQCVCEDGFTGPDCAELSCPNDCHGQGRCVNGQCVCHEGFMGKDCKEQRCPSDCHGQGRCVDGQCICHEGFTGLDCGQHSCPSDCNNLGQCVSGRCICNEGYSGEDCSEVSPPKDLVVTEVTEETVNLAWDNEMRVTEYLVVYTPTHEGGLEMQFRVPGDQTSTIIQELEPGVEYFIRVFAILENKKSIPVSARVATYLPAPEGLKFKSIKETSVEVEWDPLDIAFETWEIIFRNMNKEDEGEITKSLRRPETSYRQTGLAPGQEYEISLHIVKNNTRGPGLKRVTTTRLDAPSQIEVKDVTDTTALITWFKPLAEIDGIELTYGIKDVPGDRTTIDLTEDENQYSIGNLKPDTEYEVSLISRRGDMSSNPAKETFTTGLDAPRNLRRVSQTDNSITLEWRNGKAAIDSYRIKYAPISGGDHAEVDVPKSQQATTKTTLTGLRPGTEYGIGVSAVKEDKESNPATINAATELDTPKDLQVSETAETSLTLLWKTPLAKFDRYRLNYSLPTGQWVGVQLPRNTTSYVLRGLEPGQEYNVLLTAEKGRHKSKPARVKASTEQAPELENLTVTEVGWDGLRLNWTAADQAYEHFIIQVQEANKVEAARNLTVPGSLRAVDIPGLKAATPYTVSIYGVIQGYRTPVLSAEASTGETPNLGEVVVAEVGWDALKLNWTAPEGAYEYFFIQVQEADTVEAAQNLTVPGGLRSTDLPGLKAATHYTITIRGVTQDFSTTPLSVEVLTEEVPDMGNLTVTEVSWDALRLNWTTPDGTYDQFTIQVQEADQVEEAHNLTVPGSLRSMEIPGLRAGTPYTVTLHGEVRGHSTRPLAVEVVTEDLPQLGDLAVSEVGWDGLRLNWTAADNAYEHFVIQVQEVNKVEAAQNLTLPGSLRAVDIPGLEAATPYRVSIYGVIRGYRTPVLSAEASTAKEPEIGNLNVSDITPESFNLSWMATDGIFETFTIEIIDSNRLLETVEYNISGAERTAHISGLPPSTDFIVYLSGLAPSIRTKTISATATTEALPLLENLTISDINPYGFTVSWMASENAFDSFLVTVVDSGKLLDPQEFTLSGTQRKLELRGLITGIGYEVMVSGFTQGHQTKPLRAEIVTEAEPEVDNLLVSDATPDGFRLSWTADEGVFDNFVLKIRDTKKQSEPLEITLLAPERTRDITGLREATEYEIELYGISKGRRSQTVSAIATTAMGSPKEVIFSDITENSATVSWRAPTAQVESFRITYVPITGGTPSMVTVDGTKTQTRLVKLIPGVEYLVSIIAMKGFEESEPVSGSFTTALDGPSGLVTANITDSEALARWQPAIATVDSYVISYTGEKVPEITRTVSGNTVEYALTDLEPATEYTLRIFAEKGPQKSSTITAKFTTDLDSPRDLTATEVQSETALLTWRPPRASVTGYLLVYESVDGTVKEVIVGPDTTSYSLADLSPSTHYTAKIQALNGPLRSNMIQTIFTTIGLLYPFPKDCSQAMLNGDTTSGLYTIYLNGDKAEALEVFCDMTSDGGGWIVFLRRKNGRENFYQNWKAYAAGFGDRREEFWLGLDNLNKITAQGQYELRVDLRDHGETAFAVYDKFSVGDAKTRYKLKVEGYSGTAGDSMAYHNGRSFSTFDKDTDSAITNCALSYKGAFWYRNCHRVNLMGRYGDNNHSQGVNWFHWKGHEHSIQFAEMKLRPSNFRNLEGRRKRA

B1: ST2146 anti-human tenascin monoclonal antibody (antibody, V domains shown)
VH: KVKLQQSGPELVKPGASVKVSCKASGYAFTSYNMYWVKQSHGKSLEWIGYIDPYNGVTSYNQKFKGKATLTVDKSSSTAYMHLNSLTSEDSAVYYCARGGGSIYYAMDYWGQGTTVTVSS
VL: DIVMTQAAPSVPVTPGESVSISCRSSKSLLHSNGNTYLYWFLQRPGQSPQLLIYRMSNLASGVPDRFSGSGSGTAFTLRISRVEAEDVGVYYCMQHLEYPLTFGAGTKLELKR
notes: Mouse immunoglobulin of IgG2b/k isotype from hybridoma cST2146; Heavy chain is heterogeneously O-glycosylated
- fold affinity against BC4 (human tenascin-C [1]): ~3 fold
- binding result (A1-4D fragment): no binding
- Kd (human tenascin-C [2]): 1.4 nM
- fold less antibody to obtain 1.0 OD than BC4 (human tenascin-C [3]): ~100 fold
- fold less antibody to obtain 1.0 OD than the fully reactive peak 3 of BC4 (human tenascin-C [3]): ~20 fold
- koff (human tenascin-C [4]): 0.00041 s⁻¹
- kon (human tenascin-C [4]): 300000 M⁻¹ s⁻¹
